Measurements published in US20260209334A1 (MAX PLANCK GESELLSCHAFT ZUR F RDERUNG DER WISSENSCHAFTEN E V, published 2026).

How the values were obtained:
[1] = target: recombinant human IL-17A (produced in HEK cells, Proteintech HZ-1113) (human, UniProt Q16552 24-155); experiment: cell-based or functional assay
[2] = target: T1, recombinant human IL-17F (produced in HEK cells, Proteintech HZ-1116) (human, UniProt Q96PD4 31-163); experiment: cell-based or functional assay
T1 sequence (looked up): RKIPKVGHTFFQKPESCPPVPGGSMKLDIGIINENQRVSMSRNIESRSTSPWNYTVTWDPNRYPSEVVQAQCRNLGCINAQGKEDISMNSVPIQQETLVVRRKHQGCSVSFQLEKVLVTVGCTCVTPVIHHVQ

[3] = target: recombinant human IL-17A/F (produced in CHO cells, R&D Systems 5837-IL) (human, UniProt Q16552 24-155; Q96PD4 31-163, limits assumed); experiment: cell-based or functional assay
recombinant human IL-17A/F (produced in CHO cells, R&D Systems 5837-IL), sequence (Q16552 24-155 limits assumed, chain 1 of 2, one chain of several): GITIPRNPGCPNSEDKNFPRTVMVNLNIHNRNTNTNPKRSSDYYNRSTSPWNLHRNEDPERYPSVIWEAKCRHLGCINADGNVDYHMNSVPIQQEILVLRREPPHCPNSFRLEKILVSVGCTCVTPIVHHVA

[4] = target: T1, recombinant human IL-17F (produced in …); experiment: cell-based or functional assay; remark: listed apart in the source
[5] = target: T2, human IL-17A with C-terminal Avi-tag, biotinylated, immobilized on BLI sensors (human, UniProt Q16552 24-155, biotin on the C-terminal Avi-tag (BirA)); experiment: BLI, biotinylated IL-17A immobilized, monovalent VHH as analyte
T2 construct: also called biotinylated IL-17A; not shown: C-terminal Avi-tag
T2 sequence (Q16552 24-155): as the sequence (Q16552 24-155 limits assumed, chain 1 of 2, one chain of several) above

[6] = target: T3, human IL-17F with C-terminal Avi-tag, biotinylated, immobilized on BLI sensors (human, UniProt Q96PD4 31-163, biotin on the C-terminal Avi-tag (BirA)); experiment: BLI, biotinylated IL-17F immobilized, monovalent VHH as analyte
T3 construct: also called biotinylated IL-17F; not shown: C-terminal Avi-tag
T3 sequence: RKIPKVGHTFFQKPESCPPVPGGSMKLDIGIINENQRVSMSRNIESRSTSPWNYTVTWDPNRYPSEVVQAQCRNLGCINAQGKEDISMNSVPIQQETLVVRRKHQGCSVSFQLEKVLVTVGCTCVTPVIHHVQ

recombinant human IL-17A (produced in HEK cells, Proteintech HZ-1113), sequence (Q16552 24-155 limits assumed): as the sequence (Q16552 24-155 limits assumed, chain 1 of 2, one chain of several) above

B1: VHH664 (VHH)
VHH: EVQLVESGGGLVQAGGSLRLSCAASGRTYDAMGWLRQAPGKEREFVAAISGSGDDTYYADSVKGRFTISKDNAGITMYLQMNSLKPEDTAVYYCATRRGLYYVWDSNDYENWGQGTQVTVSS
notes: Control VHH of Ablynx, disclosed in WO2012156219
[1]
  Neutralization potency, ranking from 1 = the best to 4 (HEK-Blue IL-17 reporter cells): 2 rank
[2]
  Neutralization potency, ranking from 1 = the best to 4 (HEK-Blue IL-17 reporter cells): 4 rank
[3]
  Neutralization potency, ranking from 1 = the best to 4 (HEK-Blue IL-17 reporter cells): 2 rank
[4]
  IC50 (read off the curve), SEAP reporter, HEK-Blue IL-17 cells, 0.85 nM IL-17F: ~0.06 µg/mL
[5]
  Kd: 0.15 nM
[6]
  Kd: 12 nM
